Data: paper PMC10694668 (The Journal of Biological Chemistry, 2023)
Blank lines part the entries; values can stand above or below the molecule they belong to.

B3: Cg25c NC1 domain of the tissue-extracted (endogenous) NC1 hexamer (domain or fragment, Drosophila (endogenous in fly pellet))
chain: LDYLTGILITRHSQSETVPACSAGHTELWTGYSLLYVDGNDYAHNQDLGSPGSCVPRFSTLPVLSCGQNNVCNYASRNDKTFWLTTNAAIPMMPVENIEIRQYISRCVVCEAPANVIAVHSQTIEVPDCPNGWEGLWIGYSFLMHTAVGNGGGGQALQSPGSCLEDFRATPFIECNGAKGTCHFYETMTSFWMYNLESSQPFERPQQQTIKAGERQSHVSRCQVCMKNSS
modifications: sulfilimine cross-links in the tissue-extracted hexamer
notes: collagen IV Cg25c chain of Drosophila, NC1 domain set free by collagenase; NC1 numbering starts at residue 1551 of P08120; Fly Pellet, DGRC Stock 1661280; also called Cg25c chain; source: purified from Drosophila pellet (collagenase treatment; SEC, Q-sepharose, hydroxyapatite)
B4: Cg25c NC1 domain as it stands in the single-chain CVC trimer (domain or fragment, Drosophila)
chain: LDYLTGILITRHSQSETVPACSAGHTELWTGYSLLYVDGNDYAHNQDLGSPGSCVPRFSTLPVLSCGQNNVCNYASRNDKTFWLTTNAAIPMMPVENIEIRQYISRCVVCEAPANVIAVHSQTIEVPDCPNGWEGLWIGYSFLMHTAVGNGGGGQALQSPGSCLEDFRATPFIECNGAKGTCHFYETMTSFWMYNLESSQPFERPQQQTIKAGERQSHVSRCQVCMKNSS
notes: collagen IV Cg25c chain of Drosophila, NC1 domain; NC1 numbering starts at residue 1551 of P08120; Not a free chain: joined to the Vkg NC1 domain by GSSASSG linkers on the chain of m5 (it stands there twice; the first copy carries the N-terminal FLAG tag); Made a molecule only for the pairs seen in the CVC crystal structure; source: expiCHO-S cells, as a part of the single-chain CVC trimer; …

How the values were obtained:
[1] = biological target: single-chain CVC NC1 trimer (Cg25c-Vkg-Cg25c NC1 domains on one chain, FLAG-tagged, without mEmerald) (Drosophila) (UniProt P08120); assay: SEC; trimer peaks pooled, concentrated to ~10 mg/ml, kept at 4 °C for a month (legend: about 6 months) in tris-buffered saline; peaks also pooled and rerun in tris-buffered saline; trimer to hexamer
[2] = biological target: B3; assay: SEC; collagenase digest of Drosophila pellet; hexamer peak at 12.99 ml; then Q-sepharose and hydroxyapatite; single band of the sample not boiled cut out, trypsin or chymotrypsin digestion, MS/MS; details: both partners purified
[3] = biological target: B4; assay: crystal structure; recombinant CVC trimer, ~8.5 mg/ml, 0.1 M Na/K phosphate pH 6.5, 0.2 M NaCl, 26% PEG 1000, 22 °C; 1.75 Å; hexamer in the crystal; details: both partners purified
[4] = biological target: the molecule itself; assay: crystal structure; tissue-extracted NC1 hexamer, ~3.5 mg/ml, 35% MPD, 0.1 M NaCl, 100 mM Hepes pH 7.5, 22 °C; 2.98 Å
[5] = biological target: the molecule itself; assay: crystal structure; recombinant CVC trimer, ~8.5 mg/ml, 0.1 M Na/K phosphate pH 6.5, 0.2 M NaCl, 26% PEG 1000, 22 °C; 1.75 Å; hexamer in the crystal

B2: Vkg NC1 domain as it stands in the single-chain CVC trimer (domain or fragment, Drosophila)
chain: APKSRGFIFARHSQSVHVPQCPANTNLLWEGYSLSGNVAASRAVGQDLGQSGSCMMRFTTMPYMLCDITNVCHFAQNNDDSLWLSTAEPMPMTMTPIQGRDLMKYISRCVVCETTTRIIALHSQSMSIPDCPGGWEEMWTGYSYFMSTLDNVGGVGQNLVSPGSCLEEFRAQPVIECHGHGRCNYYDALASFWLTVIEEQDQFVQPRQQTLKADFTSKISRCTVCRRRGN
notes: collagen IV Vkg (Viking) chain of Drosophila, NC1 domain; NC1 numbering starts at residue 1511 of Q9VMV5; Not a free chain: joined on both sides to Cg25c NC1 domains by GSSASSG linkers on the chain of m5; Made a molecule only for the pairs seen in the CVC crystal structure; source: expiCHO-S cells, as a part of the single-chain CVC trimer; purified (anti-FLAG resin, SEC)
binding result [3]: binds

Molecule: B3
binding result [4]: binds

Molecule: B4
binding result [5]: binds

Further lines, results first:

percent in the hexamer peak [1]: 25%
Molecule: single-chain CVC NC1 trimer (Cg25c-Vkg-Cg25c NC1 domains on one chain, FLAG-tagged, without mEmerald) (from UniProt P08120 1550-1779; Q9VMV5 1510-1739; P08120 1550-1779)

binding result [2]: binds
B1: Vkg NC1 domain of the tissue-extracted (endogenous) NC1 hexamer (domain or fragment, Drosophila (endogenous in fly pellet))
chain: APKSRGFIFARHSQSVHVPQCPANTNLLWEGYSLSGNVAASRAVGQDLGQSGSCMMRFTTMPYMLCDITNVCHFAQNNDDSLWLSTAEPMPMTMTPIQGRDLMKYISRCVVCETTTRIIALHSQSMSIPDCPGGWEEMWTGYSYFMSTLDNVGGVGQNLVSPGSCLEEFRAQPVIECHGHGRCNYYDALASFWLTVIEEQDQFVQPRQQTLKADFTSKISRCTVCRRRGN
modifications: sulfilimine cross-links in the tissue-extracted hexamer
notes: collagen IV Vkg (Viking) chain of Drosophila, NC1 domain set free by collagenase; NC1 numbering starts at residue 1511 of Q9VMV5; peptides of the tail after the NC1 domain were not detected; Fly Pellet, DGRC Stock 1661280; also called Viking; Vkg chain; source: purified from Drosophila pellet (collagenase treatment; SEC, Q-sepharose, hydroxyapatite)
